± gives the standard error. Variants at the floor of the assay were thinned out.
B1: glmS ribozyme (parent)
chain: AUAAAAGCGCCAGAACUACAGAAAUGUAGUUGACGAGGAGGAGGUUUAUCGAAUUUUCGGCGGAUGCCUCCAAA

Columns and labels:
Settings in all cases: with glucosamine-6-phosphate
[1] = variants of: B1; assay: self-cleavage kobs at 640 uM GlcN6P; higher = faster cleavage; RNA array
In short: (§1)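 On sequenced MiSeq chips, barcoded ribozyme variants were made in situ by E. coli RNA polymerase and followed at 37 °C through a hybridised Cy3 probe. Glucosamine-6-phosphate was flowed in at 40 μM to 10 mM in HEPES/KCl/Mg(OAc)2 buffer. Exponential fits to normalised per-tile medians gave kobs, and weighted Michaelis–Menten fits gave kcat and KM.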

[2] = variants of: B1; assay: self-cleavage kobs at 2500 uM GlcN6P; higher = faster cleavage; RNA array
In short: as §1

[3] = variants of: B1; assay: self-cleavage kobs at 10000 uM GlcN6P; higher = faster cleavage; RNA array
In short: as §1

Row | Variant | self-cleavage kobs at 640 uM GlcN6P [1] | self-cleavage kobs at 2500 uM GlcN6P [2] | self-cleavage kobs at 10000 uM GlcN6P [3]
1 | AUAAAAGCGCCAGAACUACAGAAAUGUAGUUGACGAAGAGGAGGUUUAUCGAAGUUUCGGCGGAUGCCACCAAA | 0.000103 ± 2.5e-05 s⁻¹ | 5.96e-05 ± 2.2e-05 s⁻¹ | 
2 | AUAAAAGCGCCAGAACUACAGAAAUGUAGUUGACGAGAACGCGGUUUAUCGAAUUUUCGGCGGAUGCCUCCUAA | < 1e-05 s⁻¹ |  | 
3 | AUAAAAGCGCCAGAACUACAGAAAUGUAGUUGACGAGCAGGAGGAUUAUCGAAUUUUCGGCGGAUGCCUGCAAA | < 1e-05 s⁻¹ |  | < 1e-05 s⁻¹
4 | AUAAAAGCGCCAGAACUACAGAAAUGUAGUUGACGACGAGGAGGUUUAUCGAAUUUACGGCGGCUGCCUCAAAA | < 1e-05 s⁻¹ | < 1e-05 s⁻¹ | 
5 | AUAAAAGCGCCAGAACUACAGAAAUGUAGUUGACGAGAAGGAGGUUUAUCGAAUUUUCGGACGAUGCCUCCAAA | < 1e-05 s⁻¹ | < 1e-05 s⁻¹ | < 1e-05 s⁻¹
6 | AUAAAAGCGCCAGAACUACAGAAAUGUAGUUGACGACGAGGAGGGUUAUCGAAUUUUCGGCGUAUGCCUCCAAA | < 1e-05 s⁻¹ | < 1e-05 s⁻¹ | 
7 | AUAAAAGCGCCAGAACUACAGAAAUGUAGUUGACGAAGAGGAGGUUUAUCGAAUUUUCGGAGGAUGCCUUCAAA | < 1e-05 s⁻¹ | < 1e-05 s⁻¹ | < 1e-05 s⁻¹
8 | AUAAAAGCGCCAGAACUACAGAAAUGUAGUUGACGAAGAGGAGGUUUAUCGAACUUUCGGCGGAUGCCUUCAAA | 0.000626 ± 0.00016 s⁻¹ | 0.00117 ± 0.00025 s⁻¹ | 
9 | AUAAAAGCGCCAGAACUACAGAAAUGUAGUUGACGAAGAGGAGGUUUAACGAAUUUUCGGCGGAUACCUCCAAA | < 1e-05 s⁻¹ |  | 
10 | AUAAAAGCGCCAGAACUACAGAAAUGUAGUUGACGAGAAGGGGGUUUAUCGAAUUUUCGGCUGAUGCCUCCAAA | < 1e-05 s⁻¹ |  | 
11 | AUAAAAGCGCCAGAACUACAGAAAUGUAGUUGACGAUGAGGAGGUUUAUCGAAUUUUCGGCGGAACCCUCCAAA | < 1e-05 s⁻¹ |  | 
12 | AUAAAAGCGCCAGAACUACAGAAAUGUAGUUGACGAGUAGGAUGUUUAUCGAAUUUCCGGCGGAUGCCUUCAAA | < 1e-05 s⁻¹ |  | 
13 | AUAAAAGCGCCAGAACUACAGAAAUGUAGUUGACGAAGAUGACGUUUAUCGAAUUUUCGGCGGAUGCCUCCAAA | < 1e-05 s⁻¹ |  | 
14 | AUAAAAGCGCCAGAACUACAGAAAUGUAGUUGACGAGUAGGAGGUUUAUCGAAUUUUCGGCGGAUGUCUUCAAA | 0.000296 ± 0.00014 s⁻¹ |  | 
15 | AUAAAAGCGCCAGAACUACAGAAAUGUAGUUGACGAGCAGGAGGUUUCUCGAAUUUUCGGCGGAUGCCUCCAAA | < 1e-05 s⁻¹ | < 1e-05 s⁻¹ | < 1e-05 s⁻¹
16 | AUAAAAGCGCCAGAACUACAGAAAUGUAGUUGACGAAGAGGAGGUUUAUCGAAUGUUCGGCGGAUGCCUUCAAA | 0.000222 ± 4.2e-05 s⁻¹ | 0.000106 ± 3e-05 s⁻¹ | 
17 | AUAAAAGCGCCAGAACUACAGAAAUGUAGUUGACGACGAGGAGGUUUAUCGACUUUUCGACGGAUGCCUCCAAA | < 1e-05 s⁻¹ |  | 
18 | AUAAAAGCGCCAGAACUACAGAAAUGUAGUUGACGACGACGAGGUUUAACGAAUUUUCGGCGGAUGCCUCCAAA | < 1e-05 s⁻¹ | < 1e-05 s⁻¹ | 
19 | AUAAAAGCGCCAGAACUACAGAAAUGUAGUUGACGAGAAGCAGGUUUAUCGAAGUUUCGGAGGAUGCCUCCAAA | < 1e-05 s⁻¹ | < 1e-05 s⁻¹ | 
20 | AUAAAAGCGCCAGAACUACAGAAAUGUAGUUGACGAGAAGGAGGUUUAUCGAAGUUUCGGCGGAUGCCUCUAAA | < 1e-05 s⁻¹ |  | 
21 | AUAAAAGCGCCAGAACUACAGAAAUGUAGUUGACGAUGAGGCGGUUUAUCGAAUUGUCGGCGGAUGCCUCCAAA | < 1e-05 s⁻¹ |  | 
22 | AUAAAAGCGCCAGAACUACAGAAAUGUAGUUGACGAAGAGGAGGUUUAUCGAAUCGUCGGCGGAUGCCUCCAAA | 0.000171 ± 5.1e-05 s⁻¹ |  | 
23 | AUAAAAGCGCCAGAACUACAGAAAUGUAGUUGACGAGUAGGAGGUUUAUGGAAUUUUCGGCGGGUGCCUCCAAA | 6.44e-05 ± 2.9e-05 s⁻¹ | 3.85e-05 ± 1.7e-05 s⁻¹ | 
